Results as given in EP4793287A1, “TUMOR MICROENVIRONMENT SPECIFICALLY ACTIVATED CD47 ANTIBODY” (Affinity (Shanghai) Biopharmaceutical Co., Ltd., priority 2023, dated 2025).

Columns and labels:
Raji cells [1] = test: FACS binding of CD47 antibody to Raji cells
Procedure: The required cell line, Raji (cultured in RPMI-1640 (ATCC Modification, Gibco, Cat# A10491-01) + 10% FBS (BI, Cat# 04-001-1A) + 1× P/S), was expanded to the logarithmic phase. Cells were collected and pipetted to create a single-cell suspension, followed by centrifugation and removal of the supernatant. The cells were resuspended in FACS buffer (PBS + 2% FBS) and counted, and the cell density was adjusted to 2×10^6/ml. 100 µl/well of this suspension was added to a 96-well plate (Corning, Cat# 3799). After centrifugation and removal of the supernatant, 100 µl/well of the antibody sample to be tested (initial concentration of 100 nM, 5-fold gradient dilutions) was added, mixed with the cells, and incubated at 4 °C for 1 hour. Cells were washed by centrifugation with FACS buffer for three times, then added with 100 µl/well of Goat anti-Human IgG Fc Secondary Antibody, PE (eBioscience™, Invitrogen, Cat# 12-4998-82, 1:200 dilution) and incubated at 4 °C for 1 hour. After three washes with FACS buffer by centrifugation, the cells were resuspended in 200 µl/well of FACS buffer and analyzed using FACS (BECKMAN COULTER, CytoFLEX). Data were fitted and the results were analyzed using software (GraphPad Prism 8).

Raji cells [2] = test: ADCC assay with PBMCs, LDH detection; assay type: cell-based
Procedure: Raji cells (cultured in RPMI-1640 (ATCC Modification, Gibco, Cat# A10491-01) + 10% FBS (BI, Cat# 04-001-1A) + 1× P/S) were expanded to the logarithmic phase. Cells were collected and pipetted to create a single-cell suspension. After centrifugation, the supernatant was discarded, and the cells were resuspended in culture medium, counted, and the cell density was adjusted to 2×10^5/ml. 50 µl/well of this suspension was added to a 96-well cell culture plate (Corning, Cat# 3599) and incubated overnight at 37°C in a 5% CO2 atmosphere. PBMCs (XF, Cat# XC11100W) were resuspended in 10% FBS-RPMI1640 medium. After centrifugation, the supernatant was discarded, and the cell density was adjusted to 8×10^6/ml. 50 µl/well of the antibody to be tested and 50 µl of the PBMC suspension (E:T ratio of […]) were added to the culture plate. The plate was placed in a CO2 incubator and incubated for 24 hours. The ADCC assay was performed using an LDH detection kit (Cytotoxicity Detection KitPLUS (LDH), Roche, Cat# 4744934001).

[3] = test system: Human Burkitt's lymphoma RAJI cells; test: In vivo efficacy, subcutaneous RAJI transplanted tumor model; parameters: species or system NOD-SCID mice; conditions: for T/C ratio / TGI inhibition rate: after 31 days of treatment
Procedure: Human Burkitt's lymphoma RAJI cells were subcutaneously transplanted into NOD-SCID mice to establish an in vivo model. RAJI cells were cultured according to standard culture conditions and were collected during the exponential growth phase for counting. Each mouse was inoculated on the right flank with 1×10^7 human Burkitt's lymphoma RAJI cells (suspended in 0.1 ml of basal medium). After inoculation, when the tumors grew to 80-114 mm^3 (7 days post-tumor implantation), the mice were randomly grouped based on body weight and tumor volume. The experimental groups were divided as follows:
Treatment was started on the day of grouping. Mice were weighed, and tumor volumes were measured twice a week. Tumor volume was calculated using the formula: tumor volume = 1/2 × length × width × width (mm^3). The tumor growth inhibition rate TGI (%) was calculated as [1 - (Tt - T0) / (Ct - C0)] × 100%. The tumor inhibition rate T/C (%) was calculated as (Tt/T0) / (Ct/C0) × 100%. T0 represents the tumor volume of the test antibody group at the time of grouping; Tt represents the tumor volume of the test antibody group at each measurement; C0 represents the average tumor volume of the PBS group at the time of grouping; Ct represents the average tumor volume of the PBS group at each measurement.

[4] = test system: Human red blood cells (RBCs); test: FACS binding to red blood cells
Procedure: Human red blood cells (RBCs) (XFB-RBC, 10 ml) were centrifuged, and the supernatant was discarded. The cells were resuspended in FACS buffer (PBS + 2% FBS) and counted, and the cell density was adjusted to 2×10^6/ml. 100 µl/well of this suspension was added to a 96-well plate. After centrifugation and removal of the supernatant, the antibody to be tested (initial concentration of 100 nM, 5-fold gradient dilutions, 8 dilution points) was added at 100 µl/well, mixed with the cells, and incubated at 4 °C for 1 hour. Cells were washed by centrifugation with FACS buffer for three times, then added with 100 µl/well of Goat anti-Human IgG Fc Secondary Antibody, PE (eBioscience™, Invitrogen, Cat# 12-4998-82, 1:200 dilution) and incubated at 4 °C for 1 hour. After three washes with FACS buffer by centrifugation, the cells were resuspended in 200 µl/well of FACS buffer and analyzed using FACS (BECKMAN COULTER, CytoFLEX). Data were fitted and the results were analyzed using software (GraphPad Prism 8).

B1: CD47 TMEAbody: CD47 TMEAbody conjugated with PEG of approximately 20K molecular weight (i.e., PEG20K) (conjugate)
VH: QQQLEESGGGLVKPEGSLTLTCTASGFSFSSGYDMCWVRQAPGRGLEWIACIYTRSSGGTCYASWAKGRFTISKTSSTVDLRMTSLTAADTATYFCAGGRSSYRLNLWGQGALVTVSS
VL: DVVMTQTPSPVEAAVGGTVTIKCQASQSISNELSWYQQKPGQPPKLLIYRASTLESGVSSRFKGSGSGTEFTLTISDLECADAATYYCQSTFYGDYGNAFGGGTEVVVK
B1 was tested, and the “binding to Raji cells lower compared to 70H1” value (Raji cells [1]) was “approximately 60 fold”, the EC50 (Raji cells [2]; ADCC, E:T ratio of 20:1, 24 hours) was 0.0163 µM and the ADCC activity (Raji cells [2]; after the CD47 TMEAbody was activated) was “restored”. The ADCC activity (Raji cells [2]; not activated, compared to the 70H1 antibody) was “lost its ADCC activity”, the “Tumor Volume” value ([3]; 0.3 mg/kg, D0) was 94.56 mm^3 and the “Tumor Volume” value ([3]; 0.3 mg/kg, D3) was 123.83 mm^3. For the same molecule, the “Tumor Volume” value ([3]; 0.3 mg/kg, D7) was 147.44 mm^3, the “Tumor Volume” value ([3]; 0.3 mg/kg, D10) was 232.04 mm^3 and the “Tumor Volume” value ([3]; 0.3 mg/kg, D14) was 358.82 mm^3. The “Tumor Volume” value ([3]; 0.3 mg/kg, D17) was 511.34 mm^3, the “Tumor Volume” value ([3]; 0.3 mg/kg, D21) was 849.95 mm^3 and the “Tumor Volume” value ([3]; 0.3 mg/kg, D24) was 1156.48 mm^3. The “Tumor Volume” value ([3]; 0.3 mg/kg, D28) was 1887.63 mm^3, the “Tumor Volume” value ([3]; 0.3 mg/kg, D31) was 2532.90 mm^3 and the T/C ratio ([3]; 0.3 mg/kg) was 93.73%. For the same molecule, the TGI inhibition rate ([3]; 0.3 mg/kg) was 6.45%, the “Tumor Volume” value ([3]; 1 mg/kg, D0) was 94.25 mm^3 and the “Tumor Volume” value ([3]; 1 mg/kg, D3) was 100.17 mm^3. For the same molecule, the “Tumor Volume” value ([3]; 1 mg/kg, D7) was 116.36 mm^3, the “Tumor Volume” value ([3]; 1 mg/kg, D10) was 162.08 mm^3 and the “Tumor Volume” value ([3]; 1 mg/kg, D14) was 214.12 mm^3. The “Tumor Volume” value ([3]; 1 mg/kg, D17) was 307.27 mm^3, the “Tumor Volume” value ([3]; 1 mg/kg, D21) was 384.91 mm^3 and the “Tumor Volume” value ([3]; 1 mg/kg, D24) was 485.51 mm^3. For the same molecule, the “Tumor Volume” value ([3]; 1 mg/kg, D28) was 679.76 mm^3, the “Tumor Volume” value ([3]; 1 mg/kg, D31) was 890.40 mm^3 and the T/C ratio ([3]; 1 mg/kg) was 33.06%. The TGI inhibition rate ([3]; 1 mg/kg) was 69.46%, the “Tumor Volume” value ([3]; 3 mg/kg, D0) was 93.15 mm^3 and the “Tumor Volume” value ([3]; 3 mg/kg, D3) was 91.90 mm^3. The “Tumor Volume” value ([3]; 3 mg/kg, D7) was 81.07 mm^3, the “Tumor Volume” value ([3]; 3 mg/kg, D10) was 87.74 mm^3 and the “Tumor Volume” value ([3]; 3 mg/kg, D14) was 92.16 mm^3. The “Tumor Volume” value ([3]; 3 mg/kg, D17) was 91.91 mm^3, the “Tumor Volume” value ([3]; 3 mg/kg, D21) was 129.68 mm^3 and the “Tumor Volume” value ([3]; 3 mg/kg, D24) was 117.69 mm^3. The “Tumor Volume” value ([3]; 3 mg/kg, D28) was 125.24 mm^3, the “Tumor Volume” value ([3]; 3 mg/kg, D31) was 120.05 mm^3 and the T/C ratio ([3]; 3 mg/kg) was 4.51%. The TGI inhibition rate ([3]; 3 mg/kg) was 98.97%, the tumor growth inhibition ([3]; 0.3-3 mg/kg) was “significant tumor growth inhibition” and the “changes in body weight” value ([3]; during the treatment period) was “No significant changes in body weight”. The “binding to red blood cells” value [4] was “essentially no binding to red blood cells”.
